Measured values taken from patent US20190185532A1 (UNIVERSITY OF BIRMINGHAM, published 2019).
Positions count from the first letter of the chain named.

Assays:
Experiment in all cases: flow cytometry on transfected HEK293T cells
[1] = target: T1, CLEC14A^C138S (GFP tag, expressed in HEK293T) (human, UniProt Q86T13 22-490)
T1 construct: not shown: C-terminal GFP tag from vector pEGFP-N1
T1 sequence: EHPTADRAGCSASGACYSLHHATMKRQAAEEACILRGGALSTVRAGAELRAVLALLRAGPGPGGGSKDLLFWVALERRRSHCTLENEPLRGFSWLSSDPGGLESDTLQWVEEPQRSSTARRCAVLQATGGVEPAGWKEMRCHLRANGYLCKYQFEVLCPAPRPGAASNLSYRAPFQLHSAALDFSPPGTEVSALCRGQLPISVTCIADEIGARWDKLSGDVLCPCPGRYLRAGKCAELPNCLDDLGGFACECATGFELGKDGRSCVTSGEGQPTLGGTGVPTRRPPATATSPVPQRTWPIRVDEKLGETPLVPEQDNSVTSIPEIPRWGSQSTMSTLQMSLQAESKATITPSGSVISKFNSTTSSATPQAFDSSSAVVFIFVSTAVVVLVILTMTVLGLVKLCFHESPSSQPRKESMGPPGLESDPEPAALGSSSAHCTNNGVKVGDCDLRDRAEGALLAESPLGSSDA

[2] = target: T2, CD93^C136S (GFP tag, expressed in HEK293T) (human, UniProt Q9NPY3 22-652)
T2 construct: not shown: C-terminal GFP tag from vector pEGFP-N1
T2 sequence: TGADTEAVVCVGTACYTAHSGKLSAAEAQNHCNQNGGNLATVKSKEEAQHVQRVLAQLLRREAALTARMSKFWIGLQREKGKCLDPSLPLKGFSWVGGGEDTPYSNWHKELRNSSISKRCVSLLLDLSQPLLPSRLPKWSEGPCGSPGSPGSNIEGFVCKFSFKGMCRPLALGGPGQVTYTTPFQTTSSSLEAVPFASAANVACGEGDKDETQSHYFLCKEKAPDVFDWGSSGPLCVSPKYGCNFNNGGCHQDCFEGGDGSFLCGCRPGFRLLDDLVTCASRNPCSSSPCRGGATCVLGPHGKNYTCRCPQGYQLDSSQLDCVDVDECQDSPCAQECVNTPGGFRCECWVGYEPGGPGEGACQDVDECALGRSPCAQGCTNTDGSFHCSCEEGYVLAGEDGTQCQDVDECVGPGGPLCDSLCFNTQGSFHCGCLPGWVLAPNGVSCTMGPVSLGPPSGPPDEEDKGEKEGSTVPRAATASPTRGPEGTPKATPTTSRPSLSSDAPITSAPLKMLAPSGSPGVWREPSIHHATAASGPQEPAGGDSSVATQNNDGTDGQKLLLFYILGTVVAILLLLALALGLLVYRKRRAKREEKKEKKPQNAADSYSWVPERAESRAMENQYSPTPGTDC

[3] = target: T3, CD93^C104S (GFP tag, expressed in HEK293T) (human, UniProt Q9NPY3 22-652)
T3 construct: not shown: C-terminal GFP tag from vector pEGFP-N1
T3 sequence: T2 sequence with C83S, S115C

Measured: binding result

B1: biotinylated MMRN2^495-674 (human, expressed in E. coli with a His tag and a BirA tag) (ligand)
chain: QKLYLDLDVIREGQRDATRALEETQVSLDERRQLDGSSLQALQNAVDAVSLAVDAHKAEGERARAATSRLRSQVQALDDEVGALKAAAAEARHEVRQLHSAFAALLEDALRHEAVLAALFGEEVLEEMSEQTPGPLPLSYEQIRVALQDAASGLQEQALGWDELAARVTALEQASEPPRP
modifications: biotin on the BirA tag
notes: Used for staining of transfected HEK293T cells in flow cytometry, detected with streptavidin-PE; not shown: BirA tag and His tag (vector pET23a)
no binding (tested: 20 µg/mL): [1] | [2] | [3]
